{
  "source": "patent EP1942187B1",
  "test_in_all_cases": "cell-based or functional assay",
  "key": {"[1]": {"biological_target": "human zcytor19 (human)"}, "[2]": {"biological_target": "IL10Rb (CRF2-4) (human) (UniProt Q08334)", "sequence (Q08334 20-325 limits assumed, form in doubt)": "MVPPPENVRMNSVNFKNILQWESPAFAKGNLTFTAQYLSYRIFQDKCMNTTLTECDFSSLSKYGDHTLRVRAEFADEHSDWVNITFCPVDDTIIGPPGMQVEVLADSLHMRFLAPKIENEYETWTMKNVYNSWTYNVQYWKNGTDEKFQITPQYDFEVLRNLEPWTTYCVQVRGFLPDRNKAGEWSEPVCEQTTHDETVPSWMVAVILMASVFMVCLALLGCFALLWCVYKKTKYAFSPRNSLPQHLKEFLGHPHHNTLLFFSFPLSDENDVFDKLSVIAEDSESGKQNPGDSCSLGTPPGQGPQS"}, "[3]": {"biological_target": "zcytoR19 and IL10Rb (CRF2-4) coexpressed on BHK cells (human)"}},
  "data": [
    {"substance": "huIL10 (from UniProt P22301 19-178) (ligand)", "values": [
      {"measurement": "ISRE-luciferase fold induction; 293 cells transfected with ISRE-Luc./Zcytor19; HuIL 10 100ng/ml (fold induction)", "setting": "[1]", "value": 0.5}
    ]},
    {"substance": "zcyto10 (from UniProt Q9NYY1 25-176) (ligand)", "values": [
      {"measurement": "ISRE-luciferase fold induction; 293 cells transfected with ISRE-Luc./Zcytor19; Zcyto10 125ng/ml (fold induction)", "setting": "[1]", "value": 1}
    ]},
    {"substance": "zcyto20 (ligand)", "values": [
      {"measurement": "ISRE-luciferase fold induction; wild-type 293 cells; Zcyto20 0.01 ng/ml; + IL10Rb neutralizing antibody (8 ug/ml) (fold induction)", "setting": "[2]", "value": 0.8},
      {"measurement": "ISRE-luciferase fold induction; wild-type 293 cells; Zcyto20 0.01 ng/ml; no antibody (fold induction)", "setting": "[2]", "value": 1},
      {"measurement": "ISRE-luciferase fold induction; wild-type 293 cells; Zcyto20 0.1 ng/ml; + IL10Rb neutralizing antibody (8 ug/ml) (fold induction)", "setting": "[2]", "value": 1},
      {"measurement": "ISRE-luciferase fold induction; wild-type 293 cells; Zcyto20 0.1 ng/ml; no antibody (fold induction)", "setting": "[2]", "value": 1},
      {"measurement": "ISRE-luciferase fold induction; wild-type 293 cells; Zcyto20 1 ng/ml; + IL10Rb neutralizing antibody (8 ug/ml) (fold induction)", "setting": "[2]", "value": 0.9},
      {"measurement": "ISRE-luciferase fold induction; wild-type 293 cells; Zcyto20 1 ng/ml; no antibody (fold induction)", "setting": "[2]", "value": 1},
      {"measurement": "ISRE-luciferase fold induction; wild-type 293 cells; Zcyto20 10 ng/ml; + IL10Rb neutralizing antibody (8 ug/ml) (fold induction)", "setting": "[2]", "value": 0.9},
      {"measurement": "ISRE-luciferase fold induction; wild-type 293 cells; Zcyto20 10 ng/ml; no antibody (fold induction)", "setting": "[2]", "value": 4},
      {"measurement": "ISRE-luciferase fold induction; wild-type 293 cells; Zcyto20 100 ng/ml; + IL10Rb neutralizing antibody (8 ug/ml) (fold induction)", "setting": "[2]", "value": 0.8},
      {"measurement": "ISRE-luciferase fold induction; wild-type 293 cells; Zcyto20 100 ng/ml; no antibody (fold induction)", "setting": "[2]", "value": 8.4},
      {"measurement": "ISRE-luciferase fold induction; zcytoR19-overexpressing 293 cells; Zcyto20 0.01 ng/ml; + IL10Rb neutralizing antibody (8 ug/ml) (fold induction)", "setting": "[2]", "value": 1.2},
      {"measurement": "ISRE-luciferase fold induction; zcytoR19-overexpressing 293 cells; Zcyto20 0.01 ng/ml; no antibody (fold induction)", "setting": "[2]", "value": 1.1},
      {"measurement": "ISRE-luciferase fold induction; zcytoR19-overexpressing 293 cells; Zcyto20 0.1 ng/ml; + IL10Rb neutralizing antibody (8 ug/ml) (fold induction)", "setting": "[2]", "value": 1.1},
      {"measurement": "ISRE-luciferase fold induction; zcytoR19-overexpressing 293 cells; Zcyto20 0.1 ng/ml; no antibody (fold induction)", "setting": "[2]", "value": 6},
      {"measurement": "ISRE-luciferase fold induction; zcytoR19-overexpressing 293 cells; Zcyto20 1 ng/ml; + IL10Rb neutralizing antibody (8 ug/ml) (fold induction)", "setting": "[2]", "value": 1.3},
      {"measurement": "ISRE-luciferase fold induction; zcytoR19-overexpressing 293 cells; Zcyto20 1 ng/ml; no antibody (fold induction)", "setting": "[2]", "value": 68},
      {"measurement": "ISRE-luciferase fold induction; zcytoR19-overexpressing 293 cells; Zcyto20 10 ng/ml; + IL10Rb neutralizing antibody (8 ug/ml) (fold induction)", "setting": "[2]", "value": 23},
      {"measurement": "ISRE-luciferase fold induction; zcytoR19-overexpressing 293 cells; Zcyto20 10 ng/ml; no antibody (fold induction)", "setting": "[2]", "value": 97},
      {"measurement": "ISRE-luciferase fold induction; zcytoR19-overexpressing 293 cells; Zcyto20 100 ng/ml; + IL10Rb neutralizing antibody (8 ug/ml) (fold induction)", "setting": "[2]", "value": 60},
      {"measurement": "ISRE-luciferase fold induction; zcytoR19-overexpressing 293 cells; Zcyto20 100 ng/ml; no antibody (fold induction)", "setting": "[2]", "value": 91},
      {"measurement": "ISRE-luciferase fold induction; 293 cells transfected with ISRE-Luc./Zcytor19; Zcyto20 125ng/ml (fold induction)", "setting": "[1]", "value": 125},
      {"measurement": "ISRE-luciferase fold induction; BHK cells transfected with zcytoR19 alone; zcyto20 0.001 ng/ml (fold induction)", "setting": "[1]", "value": 1.4},
      {"measurement": "ISRE-luciferase fold induction; BHK cells transfected with zcytoR19 alone; zcyto20 0.01 ng/ml (fold induction)", "setting": "[1]", "value": 1.2},
      {"measurement": "ISRE-luciferase fold induction; BHK cells transfected with zcytoR19 alone; zcyto20 0.1 ng/ml (fold induction)", "setting": "[1]", "value": 1.25},
      {"measurement": "ISRE-luciferase fold induction; BHK cells transfected with zcytoR19 alone; zcyto20 1 ng/ml (fold induction)", "setting": "[1]", "value": 1.3},
      {"measurement": "ISRE-luciferase fold induction; BHK cells transfected with zcytoR19 alone; zcyto20 10 ng/ml (fold induction)", "setting": "[1]", "value": 2.1},
      {"measurement": "ISRE-luciferase fold induction; BHK cells transfected with zcytoR19 alone; zcyto20 100 ng/ml (fold induction)", "setting": "[1]", "value": 2.2},
      {"measurement": "ISRE-luciferase fold induction; BHK cells transfected with zcytoR19 alone; zcyto20 1000 ng/ml (fold induction)", "setting": "[1]", "value": 2.25},
      {"measurement": "ISRE-luciferase fold induction; BHK cells transfected with zcytoR19 and IL10Rb (CRF2-4); zcyto20 0.001 ng/ml (fold induction)", "setting": "[3]", "value": 1.5},
      {"measurement": "ISRE-luciferase fold induction; BHK cells transfected with zcytoR19 and IL10Rb (CRF2-4); zcyto20 0.01 ng/ml (fold induction)", "setting": "[3]", "value": 1.6},
      {"measurement": "ISRE-luciferase fold induction; BHK cells transfected with zcytoR19 and IL10Rb (CRF2-4); zcyto20 0.1 ng/ml (fold induction)", "setting": "[3]", "value": 2.1},
      {"measurement": "ISRE-luciferase fold induction; BHK cells transfected with zcytoR19 and IL10Rb (CRF2-4); zcyto20 1 ng/ml (fold induction)", "setting": "[3]", "value": 2.5},
      {"measurement": "ISRE-luciferase fold induction; BHK cells transfected with zcytoR19 and IL10Rb (CRF2-4); zcyto20 10 ng/ml (fold induction)", "setting": "[3]", "value": 2.4},
      {"measurement": "ISRE-luciferase fold induction; BHK cells transfected with zcytoR19 and IL10Rb (CRF2-4); zcyto20 100 ng/ml (fold induction)", "setting": "[3]", "value": 2.6},
      {"measurement": "ISRE-luciferase fold induction; BHK cells transfected with zcytoR19 and IL10Rb (CRF2-4); zcyto20 1000 ng/ml (fold induction)", "setting": "[3]", "value": 2.1}
    ]}
  ]
}
